The results in this text go back to US20230331852A1 (OSE IMMUNOTHERAPEUTICS, published 2023).

The target in experiment [1] is T1, Fc-CLEC1 labelled with Alexa Fluor 488 (human, Alexa Fluor 488 label (sites not given)).
T1 construct: also called Fc-CLEC1-A488; Alexa488-Fc-Clec-1
T1 chain: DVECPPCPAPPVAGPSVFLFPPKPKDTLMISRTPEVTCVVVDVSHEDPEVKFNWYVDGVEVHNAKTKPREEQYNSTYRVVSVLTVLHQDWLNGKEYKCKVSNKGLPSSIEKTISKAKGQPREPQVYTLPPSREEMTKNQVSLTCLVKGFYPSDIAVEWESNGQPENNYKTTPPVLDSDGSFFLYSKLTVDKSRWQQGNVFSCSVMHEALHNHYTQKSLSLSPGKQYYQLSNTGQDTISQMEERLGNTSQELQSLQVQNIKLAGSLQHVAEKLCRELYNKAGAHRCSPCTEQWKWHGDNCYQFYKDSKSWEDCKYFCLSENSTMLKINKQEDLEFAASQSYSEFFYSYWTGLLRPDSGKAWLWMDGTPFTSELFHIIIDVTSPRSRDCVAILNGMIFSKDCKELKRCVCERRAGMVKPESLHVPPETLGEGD
Put plainly: FACS competition: blocks Fc-CLEC1-A488 (10 nM) binding to CLEC-1 ligand on UV-treated PBMC. How it is done:
Competition were also measured on UV pre-treated pro-apoptotic human PBMCs, which can also express the ligand after a treatment under UV radiation for 18 hours. After UV treatment, cells were first washed in cold-PSE and then blocked during 30 min at room temperature with human Fc-block 50-fold diluted in PSE, and then replaced on ice. Purified anti-Clec antibodies at different concentrations were pre-incubated with Alexa488-Fc-Clec-1 in PSE at different concentrations for 15 min at room temperature. Pre-incubated mixes were then incubated on Fc-blocked/SAB (#34005-100, Invitrogen, Illkirch, France) pro-apoptotic PBMCs for 30 min on ice. Binding on cells were then fixed by PFA 2% in cold PBS for 10 min on ice and analyzed on CytoFlex cytofluorometer (Beckman Coulter France, Villepinte).
(§1) Methods. To measure competition on permeabilised Raji (CytoFix/cytoperm kit, BD Biosciences) which expressed CLEC1 ligand, Fc-CLEC1-labelled A488 which bound specifically to permeabilised Raji was used. To measure competition, Fc-CLEC1 labelled A488 at 10 nM or 20 nM was mixed with mouse anti-hCLEC1 at different concentrations for 15 min at RT then added on these cells for 30 min at 4° C. […] To measure competition on PMBC, we used human PBMC pre-treated by UV for 18 h to obtain apoptotic PBMC, which expressed CLEC1 ligand. Fc-CLEC1-labelled A488 bound specifically apoptotic UV-treated PBMC. To measure competition, Fc-CLEC1 labelled A488 at 10 nM was mixed with mouse anti-hCLEC1 at different concentrations for 15 min at RT then added on these cells for 30 min at 4° C.

The target in experiment [2] is T2, human CLEC-1A expressed on the cell membrane (human, UniProt Q8NC01 1-280).
T2 construct: Endogenous on human U266 myeloma cells, on monocyte-derived TGFb-DC and macrophages; on CHO cells after transduction with a Clec-1 expressing lentivirus; also called U266 CLEC1; CLEC-1A on U266 cells
T2 sequence: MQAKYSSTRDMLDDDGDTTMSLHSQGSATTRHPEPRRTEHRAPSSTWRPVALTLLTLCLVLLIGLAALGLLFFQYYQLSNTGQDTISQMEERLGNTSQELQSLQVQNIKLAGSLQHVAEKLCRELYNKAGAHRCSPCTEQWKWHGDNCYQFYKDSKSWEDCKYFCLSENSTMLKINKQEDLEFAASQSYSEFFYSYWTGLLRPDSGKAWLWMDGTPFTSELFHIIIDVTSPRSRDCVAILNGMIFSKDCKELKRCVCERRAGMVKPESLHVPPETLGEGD
Put plainly: flow cytometry on U266 cells. As for the experimental part:
(§2) Method: To measure binding of anti-CLEC1 on human U266 cell lines (pre-blocked with Fcblock to blocking FcR), antibodies at different concentrations were incubated for 30 min at 4° C., and washed before stained 30 min at 4° C. with PE-labelled anti-human IgG (Biolegend; reference 409304). Samples were analyzed on Cytoflex cytofluorometer (Beckman Coulter). The MFI of anti-CLEC1 was compared between all anti-CLEC1 antibodies and percentage of stained cells was analysed in all conditions.

Experiment [3] addresses T2, human CLEC-1A expressed on the cell …. As to the kind of experiment: flow cytometry on U266 cells, PE anti-human IgG; % positive cells. As for the experimental part:
as §2
On the technique in general: In flow cytometry, cells or beads pass a laser one at a time.

Experiment [4] has as its target T1, Fc-CLEC1 labelled with Alexa Fluor 488. Put plainly: FACS competition: blocks Fc-CLEC1-A488 (10 nM) binding to CLEC-1 ligand on permeabilised Raji cells; IC50 median. As for the experimental part:
To measure competition, purified anti-Clec antibodies at different concentrations were pre-incubated in Perm Wash Buffer with Alexa488-Fc-Clec-1 for 15 min at room temperature. Pre-incubated mixes were then incubated on permeabilized and Fc-blocked Raji cells for 30 min on ice. Binding on cells were then fixed by PFA 2% in cold PBS for 10 min on ice and analyzed on CytoFlex cytofluorometer (Beckman Coulter France, Villepinte).
as §1

Experiment [5] has as its target T2, human CLEC-1A expressed on the cell …. Put plainly: flow cytometry on CHO-Clec-1 cells, revealed with anti-hFc-PE; median fluorescence. As for the experimental part:
(§3) To measure binding of anti-clec on CHO-Clec-1 cells, human Fc Receptor Binding Inhibitor diluted at 1/200 (BD pharmingen; USA; reference 564220) was first added for 30 min at room-temperature to block human Fc receptors on CHO-Clec-1 cells to reduce background. Then, antibodies were incubated for 30 min at 4° C., and washed before stained 15 min at 4° C. with PE-labelled anti-human IgG Fc (Biolegend; USA; reference 409303). Samples were analyzed on citoflex (Beckman coulter)

For experiment [6], the target named is T3, recombinant human CLEC-1 protein with His Tag (#1704-CL R&D Systems) (human, UniProt Q8NC01 74-280).
T3 construct: Bought protein; also called His-CLEC1; His Clec-1; not shown: His tag
T3 sequence: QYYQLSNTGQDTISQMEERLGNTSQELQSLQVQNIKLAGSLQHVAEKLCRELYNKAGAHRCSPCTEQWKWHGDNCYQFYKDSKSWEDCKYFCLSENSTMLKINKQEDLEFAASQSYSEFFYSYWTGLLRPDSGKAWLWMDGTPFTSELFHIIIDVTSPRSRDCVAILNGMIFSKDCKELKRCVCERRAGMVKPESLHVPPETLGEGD
Put plainly: ELISA on immobilised His-CLEC1 (from FIGURE 12). As for the experimental part:
(§4) Method: The binding activity of the anti-hCLEC1 antibodies was assessed by ELISA (Enzyme-linked immunosorbent assay). […] A second ELISA assays was performed, like above, with immobilization of CLEC1-Fc (OSE Immunotherapeutics) at 2 μg/ml. A third ELISA assays was performed to see the cross-reactivity with mouse CLEC1. Like above, ELISA was made with immobilization of mouse Fc-CLEC1 (OSE Immunotherapeutics) at 2 μg/ml in carbonate buffer instead of His-Clec. Purified antibodies were added at different concentrations to measure binding. […] Control antibody is a commercial anti-CLEC-1A antibody.
(ELISA stands for enzyme-linked immunosorbent assay.)

Experiment [7] concerns the target T2, human CLEC-1A expressed on the cell …. As to the kind of experiment: flow cytometry on CHO-Clec-1 cells (from FIGURE 21). How it is done:
as §3

For experiment [8] the target is unchanged. As to the kind of experiment: flow cytometry on U266 cells, PE anti-human IgG; median fluorescence. As for the experimental part: as §2
The target is the same in experiment [9]. As to the kind of experiment: flow cytometry on CHO-Clec-1 cells, revealed with anti-hFc-PE; % positive cells. How it is done: as §3
The target in experiment [10] is T3, recombinant human CLEC-1 protein with …. Put plainly: Blitz biolayer interferometry, His-CLEC1 on Ni-NTA biosensor, antibody at 20 ug/mL. (Biolayer interferometry detects binding as a change in optical thickness at a sensor tip.)
For experiment [11] the target is unchanged. As to the kind of experiment: BLI (Blitz), CLEC1-His on Ni-NTA biosensor, antibody at 20 ug/mL; murine clone, FIG. 16. How it is done:
(§5) Analysis was performed with a BLItz System (Fortébio, #C22-2 No 61010-1, Molecular Devices, San José, USA).
(§6) The affinity of the anti-hCLEC1 antibodies, was measured with Blitz system (Forté Bio, C22-2 No 61010-1).

Experiment [12] has as its target T1, Fc-CLEC1 labelled with Alexa Fluor 488. As to the kind of experiment: FACS competition: blocks Fc-CLEC1-A488 (20 nM) binding to CLEC-1 ligand on permeabilised Raji cells; read-out Mean. As for the experimental part: as §1
Experiment [13] concerns the target T3, recombinant human CLEC-1 protein with …. Put plainly: ELISA on immobilised human His-CLEC1 (column hm His Clec); given as ED50. How it is done: as §4
Experiment [14] deals with T1, Fc-CLEC1 labelled with Alexa Fluor 488. As to the kind of experiment: FACS competition: blocks Fc-CLEC1-A488 (10 nM) binding to CLEC-1 ligand on UV-treated PBMC; read-out % + cells. How it is done:
as §1

For experiment [15] the target is unchanged. Put plainly: FACS competition: blocks Fc-CLEC1-A488 (10 nM) binding to CLEC-1 ligand on UV-treated PBMC; read-out Mean. As for the experimental part: as §1
The target is the same in experiment [16]. As to the kind of experiment: FACS competition: blocks Fc-CLEC1-A488 (20 nM) binding to CLEC-1 ligand on permeabilised Raji cells; read-out % + cells. How it is done:
as §1

Experiment [17] deals with T3, recombinant human CLEC-1 protein with …. Put plainly: Blitz biolayer interferometry, His-CLEC1 on Ni-NTA biosensor, antibody at 20 ug/mL. As for the experimental part:
as §5, §6
The source holds these as a separate data set.

In experiment [18] the target is T2, human CLEC-1A expressed on the cell …. Put plainly: flow cytometry on U266 cells; printed as ED50, read-out % + cells.
Experiment [19] has the same target. Put plainly: flow cytometry on U266 cells; printed as ED50, read-out Mean.
Experiment [20] has as its target T1, Fc-CLEC1 labelled with Alexa Fluor 488. Put plainly: FACS competition: blocks Fc-CLEC1-A488 (10 nM) binding to CLEC-1 ligand on permeabilised Raji cells; read-out % + cells. As for the experimental part:
as §1

Experiment [21] has the same target. Put plainly: FACS competition: blocks Fc-CLEC1-A488 (10 nM) binding to CLEC-1 ligand on permeabilised Raji cells; read-out Mean. As for the experimental part: as §1

Read-outs that look alike come from different tables or passages of the source.

B1: chimeric anti-CLEC-1A antibody 6C5 (antibody, human IgG4 S228P, kappa, V domains shown)
VH: QVQLQQSGPELVKPGASVKMSCKASGYTFTDYVISWVKQKTGQGLEWIGEIYPGSGNTYYNEKFKGKATLTADKSSSTAYIHLSSLTSEDSAVYFCAGGGSSHFDYWGQGTTLTVSS
VL: not shown
notes: also called 6C5chim; 6C5-VHwt-FcG4m / 6C5-VLwt-CLhk
In general, IC50 refers to the point on the concentration scale where inhibition reaches its midpoint. A word on the EC50: it is the concentration that produces a half-maximal response. The EC50 (read off the curve) is the concentration giving half of the maximal effect. Low readings indicate an effect from little substance, high ones a need for much substance. Broadly, the Kd is the free concentration of one partner at which half of the binding sites on the other are occupied at equilibrium, for simple one-to-one binding. As usually defined, the koff is a measure of how fast the partners let go of each other. One may read the kon as a measure of how fast the partners come together. Regarding B1, the values for the IC50 in experiment [1] and in [4] were 0.626 µg/mL and 7.71 nM, respectively. Further, the EC50 was found to be 0.258 µg/mL in experiment [2], 0.326 µg/mL in experiment [6] and 0.123 µg/mL in experiment [7]. The “EC50 (read off the curve)” value was about 0.2 µg/mL in experiment [3], about 0.1 µg/mL in experiment [5], about 0.3 µg/mL in experiment [8] and about 0.1 µg/mL in experiment [9]. Moreover, the Kd in experiment [10] amounted to 40.3 nM. In addition, the koff in experiment [10] stood at 0.00179 s⁻¹. The kon in [10] came out at 44500 M⁻¹ s⁻¹.

B2: murine anti-hCLEC1 antibody 11H11-G11 (antibody, V domains shown)
VH: QIHLVQSGPELKKPGETVKISCKASGYTFTNFGMNWVKQAPGKGLKWMGWINTNTGEPTYADDFKGRFAFSLETSASTAYLQINNLKNEDTATYFCARGAPAWFTYWGQGTLVTVSA
VL: DIQMTQSPASLSASVGETVTITCRATENIYSYLAWYQQKQGKSPQFLVYNAKTLAEGMPSRFSGSGSGTQFSLKINILQPEDFGTYYCQHHFGTPLTFGAGTKLELK
notes: Mouse hybridoma antibody
Take B2: the Kd in [11] is about 1 nM; in [17] it was 2.91 nM. The IC50 in experiment [12] was 0.72 µg/mL; in experiment [14] it was 0.36 µg/mL; in experiment [15], 2.7 µg/mL; in experiment [16], 0.7 µg/mL; in experiment [20] it was 8 µg/mL; in experiment [21] it was 1.5 µg/mL. Also, the EC50 in experiment [13] turned out to be 0.00748 µg/mL; in experiment [18] it was 0.0077 µg/mL; in [19], 0.033 µg/mL. Moreover, the koff in experiment [17] was 0.000787 s⁻¹. Moreover, the kon in experiment [17] worked out at 270000 M⁻¹ s⁻¹.
